Experimental findings from the DeepSol protein solubility set are described below.

The nature of this data set: soluble on expression in E. coli; label from the status in PepcDB or PDB records.
With “MNVREPEITSVTDLTDKELTQQWKIIDWKRVKEVVNNLQSRIASAAKSGNWKTVNKLSRLLTRSFYAKLLSIRKVTTNKGSRTPGIDGIIWSSSADKMRAALQLTNKGYRAKPLTRKYIRKKSGKLRPLSIPTMYDRAMQTLHSLVLGAIESAAGDKTSFGFKPYRSTKDAYAYLHLCLSKKVSPEWIVEGDIKACFDEISHNWILDNIPIDKRILKEFLKAGYIENYHLFPTEKGTPQGGPISPIIGNMSLNGLENALAMRFYSRSDGTIDKSHQNRRKVNYVRFADDLVVTADSPETALEIIDVIQAFLDPRGLKLSEEKTLVTNISEGFNFLGWNFRKYKGKLLPKPSKDSQKEIIKKIRDVLHKAKAWDQDRLIQTLNPIIRGWAEYHNHAVSSAIFNKLDEIVYNMLISWAKRRHSNKGFTWITTKYWHKSGKRKYVFCTELQTLERFSNAKIVRQRLASLNKNPFIDKEYFEQWKFMEYHRKKRITNPNSVLNLEHHHHHH”, the “soluble on expression in E. coli” value was “not soluble”. As for “MNWAKFRETGSPEDTDMSSTPISSDTTAVSKVIDPNYVLMVADFFKAISPDESCNDFTSFDSFSVLFQNNTRALSIARGRVSCSVTVTPGISNFFKGLHGGAVASIAERVAMACVKTVVSEDKHLFIGELSMSYLSSAPISSELLVEGTVVRTGRNLSVVTVEFKIKETMKVTYLSRATFYHSPISKL”, the “soluble on expression in E. coli” value is “not soluble”. In the case of “MNWVTHKPTFEFDNFSPFIRANTAWLGHLEFAYDLVRFEKPEILVELGTHMGASFFSFCQGVKDGGLATKCFAVDTWTGDGHTGPYGEGVFHIVDKVVKTSYPNIGNLIKSTFDEAVDQFQDGTINLLHIDGYHTYEAVSHDYKTWLPKLADNGIVLFHDIEVKDRNFGVYKFWDEVKAKYPHFQFQHSYGLGVLFPKGCSDRFKEILKNKEEIQDMYKLEHHHHHH”, the “soluble on expression in E. coli” value is “soluble”.

On to “MNYAFVVQARLGSTRLPGKILKPFYGNQSILDLMVHKLSAISNIPVIIATTNSVINEPIEKKALALGVKCFRGEENDVLKRFIDVAEYFDIQGIFRICSDNPFLDVHAARQLVEIAMKSCNDYISFDIDGTPSIKTHFGFWGEFVTLDALKRVIGFTDDLLYREHVTNYIYSHPELFNIQWISGSPVVSKHHNIRLTIDTLEDFSVAQRIYRDLQEKRVEISIEVIVDYVRRHAEYIQLMKQQIKKNSKLEHHHHHH”, for which the “soluble on expression in E. coli” value is recorded as “soluble”. With “MNYHQYYPVDVVNGPGTRCSLFVAGCVHECVGCYNKSTWRLNSGQPFTQEQEDRIIADLQDKLIPRQGISLSGGDPLHPQNVPDILRLVERIRAECPGKDIWVWTGYVLADITREQQRVVDLINVLVDGKFVQDLKDPALIWRGSSNQVVHRLRLEHHHHHH” the entry was “not soluble”; with “MNYKITTLVENCVYGRKLQAEHGLSLYIETPENRLLFDTGASDLFIRNARLLNIDLQKVDYLVLSHGHSDHTGGLRHFLELNAEATVVCKREVFFSKFKDERENGMKYTRSLDLSRFRFIDELTELVPGVFLFPSVDIIDPKDTHFERFWIQKEDGSRVPDTFPDELAMVLVEPEGLSILSACSHRGITNILRTVRTAFPELPCNLLLGGFHIHNAEESKYQVIADYLHEYLPQKIGVCHCTGVDKYAFFYKDFGDRIFYNHTGKLIQTDSLL”, “not soluble”; with “MNYLKTSGIVIKEVNTGEADRIITIFSKNKGKISALAKGARRPKSHLVAGTQLLCYSEFVLFKGKDMYTVNSCDVIESFYDIRNDLERLTYAAHMMDIVNDVILENQPASRLLQLFLNSLYMLSKTDRSPLQIVRVFEIRLLSTMGYAPWVSSCIKCGSTVFDSMYFSFLKCGFLCSKCLENDKGALKISEGAAKALNYIVHSKMSNLFSFEVSESVLDELGKVSQRYMKERLEKNYTKLDFIKTLDRIKC”, “soluble”. Then “MNYTKFDVKNWVRREHFEFYRHRLPCGFSLTSKIDITTLKKSLDDSAYKFYPVMIYLIAQAVNQFDELRMAIKDDELIVWDSVDPCFTVFHQETETFSALSCPYSSDIDQFMVNYLSVMERYKSDTKLFPQGVTPENHLFISALPWVNFDSFNLNVANFTDFFAPVITMAKYQQEGDRLLLPLSVQVHHAVCDGFHVARFINRLQELCNSKLK”, with “soluble”; and “MNYYGTSMWASDNNTASNSDSSLNLLGILLLASENNKLINNTVLTNLYGVNLMAESTGIGDKTGPSENILASNIISYNLGTGILFDESYGNLIYNNSFDNIWNVEDESLNTWNSSEIGNYWSDYEGEDADGDGVGDTPYLINSHTGSMDYLPVTRSSDFPELEHHHHHH”, with “not soluble”. With “MPAELLLYRSNLLGSDLTVTNFGGGNTSAKLEEMDPLTGEPVEVLWVKGSGGDIGSMKIDGFATLYQAKLLGLEAHYAGPQDDDKMVGFLPHCTFNLNCRAASIDTPLHSLLPFAHVDHVHPDAIIALAASSGGEAATKEIWGGRIGWLPWKRPGYTLGVMLRDFVKANPGVEGVMLAGHGIICWADSAKACYEHTVRLIADAAGYLNARLAEKPAFGGRLEHHHHHH” the entry was “not soluble”.

For “MPAIVLIGAQWGDEGKGKATDLLGGRVQWVVRYQGGNNAGHTVVLPTGENFALHLIPSGVLTPGVTNVIGNGVVIDPGVLLNELRGLQDRGVDTAKLLISADAHLLMPYHIAIDKVTERYMGSKKIGTTGRGIGPCYQDKIARIGIRVADVLDPEQLTHKVEAACEFKNQVLVKIYNRKALDPAQVVDALLEQAEGFKHRIADTRLLLNAALEAGETVLLEGSQGTLLDVDHGTYPYVTSSNPTAGGAAVGSGIGPTRIGTVLGILKAYTTRVGSGPFPTELFDEHGEYLSKTGREFGVTTGRRRRCGWFDAVIARYAARVNGITDYFLTKLDVLSSLESVPVCVGYEIDGRRTRDMPMTQRDLCRAKPVYEELPGWWEDISGAREFDDLPAKARDYVLRLEQLAGAPVSCIGVGPGREQTIVRRDVLQDRP”, the “soluble on expression in E. coli” value was “not soluble”. Consider “MPAKVLINGYGSIGKRVADAVSMQDDMEVIGVTKTKPDFEARLAVEKGYKLFVAIPDNERVKLFEDAGIPVEGTILDIIEDADIVVDGAPKKIGKQNLENIYKPHKVKAILQGGEKAKDVEDNFNALWSYNRCYGKDYVRVVSCNTTGLCRILYAINSIADIKKARIVLVRRAADPNDDKTGPVNAITPNPVTVPSHHGPDVVSVVPEFEGKILTSAVIVPTTLMHMHTLMVEVDGDVSRDDILEAIKKTPRIITVRAEDGFSSTAKIIEYGRDLGRLRYDINELVVWEESINVLENEIFLMQAVHQESIVIPENIDCIRAMLQMEEDNFKSIEKTNKAMGIQ”, for which the “soluble on expression in E. coli” value is “soluble”. As for “MPALEFFKDKERGVLDPKVFERAREVAEGLARGKLKSSQFRNYFAELRALENRFERERRKEGEELAFARLVPQLELLRAKLFYNTRSQGPLRDAKEFVEFMEEALEAGKRSPKDFEAMMKYVEAVLAYFYALAK”, the “soluble on expression in E. coli” value is “soluble”. “MPALPPVYTPSGAPSSVHAPPAVPPVPVPTQPLRSEYQTSNDACIKRLEELNIAPAAKLYPTPTEPGKCGVEAEIQTNVFGIEMHQDSLFYQYSVNITTELKNGKEVTFTKKGKDDFVVTERHDKCCAILFRALGDYEEFFKTSDSCLIYDGQSILFSNVDLFQGFREGAVKTKYMQLDGGEMDHKDLKSLPCIKLEVFPTKNPAVKFTREAVARRATDSNLDSVSLAYQQILELALTQPCLRNTARYVVFDHGKMFFIDPLGEGFEKCDVVDVGDGKQVVPGLKKTINFIEGPYGRGRSNPSVVIDGMKVAFHKNQPILDKLKEITTQPVEHGLKGLEKDRCAAVIKGLDCYSTYGGRERHHKIEGIHHEGARNARFELNDGGSCTVAQYFEDVYNITLRYPDTNLIVSKERGNINFYPMELLKISSHQRVQIPQLTSAQSQKTTKESAVLPDVRQRLILTGKNAAQISSDNEVLGKMGVSVCEDPLMVKGRSIPAVKLANAEIGANPINVKDNKWRANRFTRPATAPNVWAMYVVGTASTRITLDTLKKFADEFAAMCKSKGVNMPAPADISLIHMDAIESRLYDATKANCTFVFIITDDSITTLHQRYKMIEKDTKMIVQDMKLSKALSVINAGKRLTLENVINKTNVKLGGSNYVFVDAKKQLDSHLIIGVGISAPPAGTKYAMENKGVLNPNVIGYAYNAQHNQEFSGDFVLNSASQDTLAPIEDIVMHSLNEYQKFHDGGLPRRVIVYRTGTSEGNHGSIMAYEIPLARAAMRDFSPDIQLVYIVVSKDHSFRFFKPDLASLASRPQATSSTASRHSAMPAAPKAWDLNIAPGILVDSIVTNPACKQFFLNSHITLQGTAKTPLYTVLADDAKVSMTALEDITYKLCHLHQIVGLPTSLPTPLYVANEYAKRGRNLWNEAVALNNVPTVSGPEADRLKELTKSICYKASGDLTGRRVNA”: the “soluble on expression in E. coli” value is reported as “not soluble”. In the case of “MPALSHGLSRFRGEAKPPGPSPRRSRESMAMDSKASMFTHGARPARIALFSGNYNYTLDGANKSLNRLVDHVQRTTGAQVRIYSPTSPTPAFAPVGELVSVPSVTIPFRRDYRLALGLPAAVRRDVEAFAPDLIHLSAPDLLGAAALKLGRRLKTPVVASLHTLFDSYLDYYGLGGLRALARRRLWQFYGACDFVMTPTPAIGEELRAQNLGVQVRTWARGVDADLFNPARRSADWRAAQGFDPDRPVIVFLGRLVMEKGLAAFADTIDRLAASGPSPQVLIIGDGPARAWFQERLPMATFAGFLTGEALATALASADIFLNPSTTETFGNVNLEAMASGLAIVCADAPNTRALLRDGRDAILCAPSDPASYAQALLSLCQDQNRLRRMGAKALDRSAAYRWTEILDEVVDIYAEALDARASAPSRAEVSPHELRARTGRRAGLIDAQAAALSTPLEHHHHHH”, the “soluble on expression in E. coli” value is “soluble”. In the case of “MPASYAYLGPEGTFTEVALRTLPEAATRELVPMVSVPAALDAVRNGEAEAAFVPIENSVEGGITTTLDELVAGEPLMIYREVLLSITFALLVRPDTKLSEIKTVTAHPAAQPQVRNWMKANLPDVVWESAASNADGARLVQEGRYDAAFAGEFAAAKYGLVPLETGIHDAENAQTRFVLVGRPAR”, the “soluble on expression in E. coli” value is listed as “not soluble”. “MPATAYERVVYKSPSEYHYMKVCLEFQEHGVGLNVAQFKQLLVSALRDLFGEVGAALPVDVLTYDEKTLSAILRICSSGLVKLWSSLTLFGAYKSKKCAFRVIQVSPFLLALSGNSREQVLD”: the “soluble on expression in E. coli” value is “not soluble”.

Regarding “MPDNLSAIFGTILDYAEEVAAGTSNENDERPPRTSLTKKQQKAVSILRNFSTNDQKQEISFQELSQNVLDDWDISNIKSSSVQQLVELLNLPRVQGVLWAAQEISAGRFAPQLPDVPFEVDEDDGVAVKIVRIVRRGEPLGATIKCERGKVYVARIMANGVADRSGCIQEGDRVLEVNGITVADKEPREIVKLLDKCDNGIITFKLIPAEINQKLKQKKSSHRYARALFDYDPWQDKRHPCPEAAISFRGGDILEILDEKDQYWWQTRKIGFGALARRKESHDDENRDDSKKVGLVPSEWLQCQSEIPENGIDTSDDFQSFLENHKGRFYESVFRWRNKKKRRRVVVLLGAPGVGRNEIRRQFFKVFADRFTNAIPHTSRPQRPNESDGVNYYFTSRSEMERMIERKEMLEYGEFRDNLYGTALKSVRKASEKGTVLLTPHPLAIENIRTWEFAPIVIFVQPPEFGEFKHTREVYRSQTTRSHSAASSSNISQNTAATSAARAFSDVEIRQIIDNSAQMEQKYRGYCDAIIRNVDLDTTMNELTGLIYQLESKATWMPMKWLDDIGE”, the “soluble on expression in E. coli” value is “not soluble”. Take “MPDPQISAIICTHNRDTYLGAAIDSLLVQDFAGEFEVVVIDNGSSDRTREVVEQRSSDSRLKYVFEPTIGLSVARNTGAKFASAEILAYLDDDAVASTHWLQVLYAAYQNYPQLAIAGGKVTLLWPPDTQPPRWLSSGLAGNLGAYDLGDKVVYIQQPGLTPRGLNYSIRRTFLEEIGGFDPHLGRVGKNLLSNEELQMTELALTGGWQVAYLPEALVAHNVAPERLNRSWFLNRGWWQGISECYREQLSGKAGVGQLSRGGERLARGLYKAFRYFSNPAERFDNLVYAYGQIGYLNAVLQGLLFTANNKGSQLEHHHHHH”: the “soluble on expression in E. coli” value is listed as “soluble”.
